From paper PMC5420311 (Nature structural & molecular biology, 2017)

Biological target: phosphoubiquitin (UniProt P0CG48 1-76, phosphorylated by PINK1 (Ser65))
Test: ITC

B1: ΔUBL-Parkin (80-465) (domain or fragment)
chain: MNATGGDDPRNAAGGCEREPQSLTRVDLSSSVLPGDSVGLAVILHTDSRKDSPPAGSPAGRSIYNSFYVYCKGPCQRVQPGKLRVQCSTCRQATLTLTQGPSCWDDVLIPNRMSGECQSPHCPGTSAEFFFKCGAHPTSDKETSVALHLIATNSRNITCITCTDVRSPVLVFQCNSRHVICLDCFHLYCVTRLNDRQFVHDPQLGYSLPCVAGCPNSLIKELHHFRILGEEQYNRYQQYGAEECVLQMGGVLCPRPGCGAGLLPEPDQRKVTCEGGNGLGCGFAFCRECKEAYHEGECSAVFEASGTTTQAYRVDERAAEQARWEAASKETIKKTTKPCPRCHVPVEKNGGCMHMKCPQPQCRLEWCWNCGCEWNRVCMGDHWFDV
binding result: binds
